Reference: a protein production outcome set (Wang et al. 2014)

Assay: label from the status in PepcDB records

Row | Sequence | protein production
1 | MEDWWFSWLSRTNLEPSLIHEYGLSFSQNELEHEDISYFDHEFLQSMGISIAKHRLEILKLARRDRKNSPPLTSRSISRVVTAIKKTRKCLSDHVRAWIRREEESASSRALVLVPKKTSNGIGKWRGGFLKRNKRSVMPSNGNGGLEKQERLLLTNGTPCRIDSFSSPMVFDYSFKDEKLYAQDTYFEDIKWDSMFQNLKPT | failed
2 | MEEERRDDYKFLRIQDAFKALHLHVNLIGVIVELGFSNGSDCSCTLKIVDPWYSGSGLPVKFVARTIRDLPRVESIGDIILLSRVKIVLINRKITALCNETTSSSFALFNGKHSVDSIPYQSSPKFLMREQDKNFLSNLREWMITYKFEDGS | not failed
3 | MEEITDGVNNMNLATDSQKKNRIQVSNTKKPLFFYVNLAKRYMQQYNDVELSALGMAIATVVTVTEILKNNGFAVEKKIMTSTVDIKDDARGRPVQKAKIEITLVKSEKFDELMAAANEEKEDAEAQVQN | not failed
4 | MEEKRLSAKKGLPPGTLVYTGKYREDFEIEVMNYSIEEFREFKTTDVESVLPFRDSSTPTWINITGIHRTDVVQRVGEFFGIHPLVLEDILNVHQRPKVEFFENYVFIVLKMFTYDKNLHELESEQVSLILTKNCVLMFQEKIGDVFDPVRERIRYNRGIIRKKRADYLLYSLIDALVDDYFVLLEKIDDEIDVLEEEVLERPEKETVQRTHQLKRNLVELRKTIWPLREVLSSLYRDVPPLIEKETVPYFRDVYDHTIQIADTVETFRDIVSGLLDVYLSSVSNKTNEVMKVLTIIATIFMPLTFIAGIYGMNFEYMPELRWKWGYPVVLAVMGVIAVIMVVYFKKKKWL | not failed
5 | MEEKVEELIDIYKQQIYSLCYKLAKTKEDAEDIFQETWIKVFSSRHQLSYVENYKKWITTICVRTFYDFYSKKKRWKDRVLDLFHKEDGGEIEFADDVNISEEFIQKVEAEMIREVIQLLNEKYKTVLVLYYYEQYSYKEMSEILNIPIGTVKYRLNYAKKQMREHLEGFVHEGR | failed
6 | MEENKPVFSIITVCYCARDIIAKTAHSVLSQTYPNIEYIVVDGASPDNTAEVVRSLSSDIRLISEPDKGLYDAMNKGLRMALGDYVWFLNAGDLLPSDDLVEAIANGIKSSPMGLPDVLYGDTMLIDATGKEKGLRRLRPPFELQWRSFADGMLVCHQAFIAKRLIAPPYNMKYRFSADFDWCIRILQAARNIVNTEMILVHSLDDRGGITYKNHKASLKERFLIMKHYYGSRKSIMKHLSFFFRRKR | failed
7 | MEEPRRLGGRYELGPVLGRGGMAEVYHAHDTRLGRQVAVKTLRADLARDPSFQARFRREAQSAASLNHPAIVAVYDTGEDYIDNVSIPYIVMEYVDGSTLRELLHSGRKLLPERTLEMTIGILQALEYSHRAGIVHRDIKPANVMLTRNGQVKVMDFGIARAMGDSGMTMTQTAAVIGTAQYLSPEQAKGEQVDARSDLYSTGCLLYELLTVRPPFVGDSPVAVAYQHVREEPQAPSVFDPEITPEMDAIVLKALVKDPDYRYQSADEMRVDIEACLDGQPVGATAAMGAMAAGGYGAYPDDQPTTALRSDGGGGATTMLPPMNPDDGGYGYDERPDRRRQQPRKKNTSTIFLVLAGVLVLVGAILIGKYAFSGDGGPGNDKVPVPAFIGLSKADAQQQADNIDLVLTFKQQECEDQPKGNICAQDPKQGTDVDKESTVNLVVSTGAPKVAVPNVIDKNIDEAKKQLEDKGFEVETKQTESSQDEGTILSQNPDPGKELEKGSTVTLEVAKAEEKATVPDVVGRTCDEAKAQVESGGDLTAVCTDQPTNDPNQVGKVISTTPQSSTQVDPGSKVTIVVGKAVEKTKVPEVRGKTLAEARQILQQSGFTNVQVAQGSPGDDNAKVFASNPQPGSEVDDPAATPITLMTVPGDGGNGNGGNGNGGAIAGLPGFGD | failed
8 | MEEQVLGQSHDCETAADKSDQKLQDVTLAKTTHWGKIKAMLEEKIDELSQGLHRVASDNAALTRSLQERSEMIVKISEERSKAEADVEKLKD | failed
9 | MEESDVLISLIEILKIHQKVIDYDKFKDPEDYTPAIRSLATLELMFEYLIKESNTIFENAAVIVYTIVAKHPFFNGNKRTGYEAMNFIIEDGGYGFTSTDEEMIEFIIRVATTENEMSIEEIKEWIIRHTEKILLEHHHHHH | not failed
10 | MEESSAAKIQLLKEFKFEKILKDDTKSKIITLYGKIRNEVALLLLEKTAFDLNTIKLDQLATFLQDTKLVENNDVFHWFLSTNFQDCSTLPSVKSTLIWPASETHVYKYSSQKKPMVCETPLMYLKVTKPFIETQRGPQIQWVENILTHKAEAERIVVEDPDPLNGFIVIPDLKWDRQTMSALNLMAIVHATDIASIRDLKYKHIPLLENIRNKVLTEVPKQFSVDKNQLKMFVHYLPSYYHLHVHILHVDHETGDGSAVGRAILLDDVIDRLRNSPDGLENVNITFNIGEQHFLFQPLTNMNA | not failed
11 | MEFEVEYDILVIVLVAFYILAATRIAHVIGLPPGVVEIIMGAMLAFWGVKSTEVLTLLAAIGANLLLFMAGSEIDLALLRSILPQAVIVALVSALAPLALTALLHVYLGLSLTSSLVILASLSATSVALTYLLLSSYRLVRSRLGQLALASAMLLDLSGMIMLNIATASISPSLAFYIVILLAALLLYPLLPRLGGAPFEAEIRLITMTVIILGFLSDFVGVHSVLTSFILGVIASETVRTRVQLREKLESLATGFFTPFFFIASGMSIDPGIPLHYVALALAGGVALALARTYTVYFYFRLTGSSRRSSLIAASSTAMLLTVTIIAASVGFQLGLLDSLMYSVLVWIVVGTILGSFALVKMR | failed
12 | MEFLFILLPVFGIFAIGFIGQKTLKFDIPNLSKLTLYLMSPFLAFNTFYTNPLTMDYFYLAIYIFVLCLSLILLVSVISFLLGYNVQDRCALILASAFMNNGNYGTPVVLLVFGAAGLDIAVVLMVLQQLAMSTIGIYFAAKGSKDANGMKTVMTRVVRMPIAYGALLGLMLQLLHIPLPSALMTCVKLVGDAAIPTIMIVLGMQLAVISFRRIELDKVGIALVLKLLIAPFIAFGLTLILPVDEMTKQIMILLAAMPTAANTTLMAVQFDTKPDLVSSTTFISTVLSIITLPIVLYFLHPVF | failed
13 | MEFTTQHFIALAPMLITTITTVVVMLAIAWKRNHSQTFLLSTVGLNLALLSLLPALKVAPLAVTSLITIDKFACLYMAIILVATLACVTLAHAYLGEGAKGFPGNREELYLLLLMSALGGLVLVSANHLAGLFIGLELLSVPVYGLVAYAFFNKRSLEAGIKYMVLSAAGSAFLLFGMALLYADAGSLSFDQIGKALATTSMPSLVAQLGLGMMLVGLAFKLSLVPFHLWTPDVYEGAPAPVAAFLATASKVAVFAVVVRLFMLSPAASSGVLSTVLAVIAVASILIGNLLALTQSNLKRLLGYSSIAHFGYLVIALVASKGLALEAMGVYLVTYVITSLGAFGVITLMSSPYGGRDADALYEYRGLFWRRPYLTAVLTVMMLSLAGIPLTAGFIGKFYIIATGVESHLWWLVGALVIGSAIGVYYYLRVMVTLYLVEPNLRRHDAPLKWEQRTGGVMLLAIAILAFVLGVYPQPLLEMVQQAGLQLIG | failed
14 | MEGCVSNIMICNLAYSGKLDELKERILADKSLATRTDQDSRTALHWACSAGHTEIVEFLLQLGVPVNDKDDAGWSPLHIAASAGRDEIVKALLVKGAHVNAVNQNGCTPLHYAASKNRHEIAVMLLEGGANPDAKDHYDATAMHRAAAKGNLKMVHILLFYKASTNIQDTEGNTPLHLACDEERVEEAKFLVTQGASIYIENKEEKTPLQVAKGGLGLILKRLAEGEEASM | not failed
15 | MEGDVYSGFGERYQMDGKLLQNFQKSFVQVQDILDQNRLLINEINQNHESKQADHLGRNVGLIRELNNNIRTVASLYGDLSHSFARSVDASSEGESTGTLKSDGKANNQKRFRSG | failed
16 | MEGFVLAGTSSGVGKTVATLATLTALEDAGYQPQPAKAGPDFIDPSHHEALVDTPSRTLDPWLAGEDGMRRTYWRGTGDICVVEGVMGLYDGTKTSTAAVAEGLDLPVVLVVDAKAGMESVAATALGFAQYADRIGVDIEVAGILAQRAHGGRHADGIRDALPEDLTYFGRIPPMSDLEIPDRHLGLHMGSEAGLDRDALSTAAETIDIERLVETARAPPEVATTERNTGDSPADRRVAVAQDSAFCFIYPSVLERLRSEASVEPFSPVAGDSVPDADAIYLPGGYPELHGESLETGGTLDEIAVRAADGVPVYGECGGLMALSESLTTTDGDTYEMAGVLPADIEMQDRYQALDHVELEARADTVAATSGAHRRGHEFHYSAATLGSDASFAFDMVRGDGIDGEHDGLTEYSTIGTYCHCHGESGAFDRLLAVPSKDILEHHHHHH | failed
